9 molecules from US20220002398A1 (ONCOONE RESEARCH AND DEVELOPMENT, published 2022) can be followed below.

A word on the EC50: it is the concentration that produces a half-maximal response. By Kd is commonly meant the free concentration of one partner at which half of the binding sites on the other are occupied at equilibrium, for simple one-to-one binding.

For test [1], the target named is T1, Recombinant human MIF, immobilized (transforming MIF to oxMIF) (human, UniProt P14174 2-115).
T1 construct: also called immobilized MIF (oxMIF); HuMIF
Briefly: ELISA, immobilized recombinant human MIF (oxMIF), protein L-HRP detection, 4-parameter fit. On the procedure: Recombinant human MIF (1 μg/ml) diluted in PBS was immobilized into microwell plates (transforming MIF to oxMIF according to Thiele M. et al., 2015, J Immunol 2015; 195:2343-2352). After blocking, the bispecific antibodies were added to the plates at different concentrations. Bound bispecific antibodies were detected using protein L-HRP conjugate. Plates were developed by adding TMB and chromogenic reaction was stopped with H₂SO₄. OD was measured at 450 nm.
EC50 values of the binding curves, which reflect rough KD estimates, were calculated by 4-parameter fit and are shown in Table 5.

The target of test [2] is T1, Recombinant human MIF, immobilized …. Briefly: SPR, Biacore T200, HuMIF immobilized on CM5 chip, single cycle kinetics, 1:1 Langmuir model. Here is the method:
The affinity of the antibodies was determined using a Biacore™ T200 device. HuMIF was immobilized onto CM5 sensor chips and anti-oxMIF bispecific entities were injected at different concentrations in running buffer (HBS-EP plus 0.1% BSA) to generate single cycle kinetic profiles.

Test [3] has as its target T2, native CD3 on CD3-positive Jurkat T cells (UniProt P07766 23-207; P04234 22-171; P09693 23-182).
T2 construct: whole, on cells; also called functional CD3 (CD3+)
The experiment in a line: flow cytometry on viable CD3+ Jurkat T cells, antibody at 70 nM, goat anti-human IgG (H+L) Alexa Fluor 488. On the procedure: CD3 positive Jurkat T-cells, which express functional CD3 (CD3+) were incubated with bispecific antibodies, C0008 (anti-oxMIF monospecific control antibody), a non-specific isotype control antibody (Isotype) at a concentration of 70 nM or without antibody (secondary ab only). Bound antibodies were detected by a goat anti-human IgG (H+L) Alexa-Fluor 488 conjugate (secondary antibody). 7AAD was used to label dead cells and samples were analysed by FACS.
Background: In flow cytometry, cells or beads pass a laser one at a time.

T2 sequence (P07766 23-207, chain 1 of 3): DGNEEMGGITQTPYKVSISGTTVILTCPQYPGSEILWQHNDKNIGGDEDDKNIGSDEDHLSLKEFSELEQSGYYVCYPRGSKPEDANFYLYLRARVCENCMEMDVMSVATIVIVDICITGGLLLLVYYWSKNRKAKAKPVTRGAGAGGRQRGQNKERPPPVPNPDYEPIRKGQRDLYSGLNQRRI
T2 sequence (P04234 22-171, chain 2 of 3): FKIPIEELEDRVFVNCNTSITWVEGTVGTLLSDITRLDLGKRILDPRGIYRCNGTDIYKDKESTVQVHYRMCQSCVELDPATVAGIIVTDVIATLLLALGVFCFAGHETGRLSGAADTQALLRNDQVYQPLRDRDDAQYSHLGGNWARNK
T2 sequence (P09693 23-182, chain 3 of 3): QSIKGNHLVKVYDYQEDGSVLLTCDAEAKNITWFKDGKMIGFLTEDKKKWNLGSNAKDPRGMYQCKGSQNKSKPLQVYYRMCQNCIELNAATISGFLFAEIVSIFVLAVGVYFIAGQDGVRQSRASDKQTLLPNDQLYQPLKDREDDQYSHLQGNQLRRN
T1 sequence (P14174 2-115 limits assumed): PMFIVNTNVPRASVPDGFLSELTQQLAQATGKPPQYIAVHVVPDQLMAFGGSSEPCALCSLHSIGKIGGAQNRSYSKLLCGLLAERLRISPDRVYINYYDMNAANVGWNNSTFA

B1: C0032 (Anti-oxMIF-scFv fused to an anti-CD3-scFv, BiTE) (bispecific antibody)
chain: DIQMTQSPSSLSASVGDRVTITCRSSQRIMTYLNWYQQKPGKAPKLLIFVASHSQSGVPSRFRGSGSETDFTLTISGLQPEDSATYYCQQSFWTPLTFGGGTKVEIKGGGGSGGGGSGGGGSEVQLLESGGGLVQPGGSLRLSCAASGFTFSIYSMNWVRQAPGKGLEWVSSIGSSGGTTYYADSVKGRFTISRDNSKNTLYLQMNSLRAEDTAVYYCAGSQWLYGMDVWGQGTTVTVSSGGGGSQVQLVQSGAEVKKPGASVKVSCKASGYTFTRYTMHWVRQAPGQGLEWMGYINPSRGYTNYNQKFKDRVTLTTDKSSSTAYMELSSLRSEDTAVYYCARYYDDHYSLDYWGQGTLVTVSSGGSGGSGGSGGSGGSDIQMTQSPSSLSASVGDRVTITCSASSSVSYMNWYQQKPGKAPKRLIYDTSKLASGVPSRFSGSGSGTDFTLTISSLQPEDFATYYCQQWSSNPFTFGQGTKLEIKAAAEQKLISEEDLSAWSHPQFEK
notes: also called anti-oxMIF/CD3 BiTE
With B1, the 50% effective concentration (EC50) in test [1] came to 4 nM. Moreover, the Kd in test [2] worked out at 4.3 nM. Further, in test [3], the binding result is on record as “binds”.

B2: C0037 (Anti-oxMIF Fab fused to two anti-CD3 scFv, format: Fab-(scFv)2) (bispecific antibody)
heavy: EVQLLESGGGLVQPGGSLRLSCAASGFTFSIYSMNWVRQAPGKGLEWVSSIGSSGGTTYYADSVKGRFTISRDNSKNTLYLQMNSLRAEDTAVYYCAGSQWLYGMDVWGQGTTVTVSSASTKGPSVFPLAPSSKSTSGGTAALGCLVKDYFPEPVTVSWNSGALTSGVHTFPAVLQSSGLYSLSSVVTVPSSSLGTQTYICNVNHKPSNTKVDKRVEPKSCGGGGSGGGGSGGGGSQVQLVQSGAEVKKPGASVKVSCKASGYTFTRYTMHWVRQAPGQGLEWMGYINPSRGYTNYNQKFKDRVTLTTDKSSSTAYMELSSLRSEDTAVYYCARYYDDHYSLDYWGQGTLVTVSSGGSGGSGGSGGSGGSDIQMTQSPSSLSASVGDRVTITCSASSSVSYMNWYQQKPGKAPKRLIYDTSKLASGVPSRFSGSGSGTDFTLTISSLQPEDFATYYCQQWSSNPFTFGQGTKLEIKAAAEQKLISEEDLAAHHHHHH
light: DIQMTQSPSSLSASVGDRVTITCRSSQRIMTYLNWYQQKPGKAPKLLIFVASHSQSGVPSRFRGSGSETDFTLTISGLQPEDSATYYCQQSFWTPLTFGGGTKVEIKRTVAAPSVFIFPPSDEQLKSGTASVVCLLNNFYPREAKVQWKVDNALQSGNSQESVTEQDSKDSTYSLSSTLTLSKADYEKHKVYACEVTHQGLSSPVTKSFNRGECGGGSGGGSGGGSQVQLVQSGAEVKKPGASVKVSCKASGYTFTRYTMHWVRQAPGQGLEWMGYINPSRGYTNYNQKFKDRVTLTTDKSSSTAYMELSSLRSEDTAVYYCARYYDDHYSLDYWGQGTLVTVSSGGSGGSGGSGGSGGSDIQMTQSPSSLSASVGDRVTITCSASSSVSYMNWYQQKPGKAPKRLIYDTSKLASGVPSRFSGSGSGTDFTLTISSLQPEDFATYYCQQWSSNPFTFGQGTKLEIKASAWSHPQFEK
B2: the EC50 in test [1] stood at 3.4 nM. In addition, the Kd in test [2] turned out to be 5.9 nM.

B3: C0039 (Full anti-oxMIF IgG with anti-CD3 scFv fused to light chain, IgG(lc)-scFv) (bispecific antibody)
heavy: not shown
light: DIQMTQSPSSLSASVGDRVTITCRSSQRIMTYLNWYQQKPGKAPKLLIFVASHSQSGVPSRFRGSGSETDFTLTISGLQPEDSATYYCQQSFWTPLTFGGGTKVEIKRTVAAPSVFIFPPSDEQLKSGTASVVCLLNNFYPREAKVQWKVDNALQSGNSQESVTEQDSKDSTYSLSSTLTLSKADYEKHKVYACEVTHQGLSSPVTKSFNRGECGGGGSGGGGSGGGGSQVQLVQSGAEVKKPGASVKVSCKASGYTFTRYTMHWVRQAPGQGLEWMGYINPSRGYTNYNQKFKDRVTLTTDKSSSTAYMELSSLRSEDTAVYYCARYYDDHYSLDYWGQGTLVTVSSGGSGGSGGSGGSGGSDIQMTQSPSSLSASVGDRVTITCSASSSVSYMNWYQQKPGKAPKRLIYDTSKLASGVPSRFSGSGSGTDFTLTISSLQPEDFATYYCQQWSSNPFTFGQGTKLEIK
notes: also called IgG(Ic)-scFv
For the molecule B3, in test [1], the EC50 turned out to be 0.3 nM. In addition, the Kd in test [2] was determined as 1 nM. Moreover, the binding result in test [3] is recorded as “binds”.

B4: C0033 (Variable domains of anti-oxMIF and anti-CD3 fused in a row (VL1-VH2-VL2-VH1, TandAb)) (bispecific antibody)
chain: DIQMTQSPSSLSASVGDRVTITCSASSSVSYMNWYQQKPGKAPKRLIYDTSKLASGVPSRFSGSGSGTDFTLTISSLQPEDFATYYCQQWSSNPFTFGQGTKLEIKGGSGGSEVQLLESGGGLVQPGGSLRLSCAASGFTFSIYSMNWVRQAPGKGLEWVSSIGSSGGTTYYADSVKGRFTISRDNSKNTLYLQMNSLRAEDTAVYYCAGSQWLYGMDVWGQGTTVTVSSGGSGGSDIQMTQSPSSLSASVGDRVTITCRSSQRIMTYLNWYQQKPGKAPKLLIFVASHSQSGVPSRFRGSGSETDFTLTISGLQPEDSATYYCQQSFWTPLTFGGGTKVEIKGGSGGSQVQLVQSGAEVKKPGASVKVSCKASGYTFTRYTMHWVRQAPGQGLEWMGYINPSRGYTNYNQKFKDRVTLTTDKSSSTAYMELSSLRSEDTAVYYCARYYDDHYSLDYWGQGTLVTVSSAAAEQKLISEEDLSAWSHPQFEK
In the case of B4, the half-maximal effective concentration (EC50) in test [1] turned out to be 1.9 nM. Besides, the Kd in test [2] worked out at 4.8 nM.

B5: C0006 (Anti-oxMIF/CD3 Crossmab (CH1-CL), Crossmab) (bispecific antibody, human IgG1, kappa)
light 1: DIQMTQSPSSLSASVGDRVTITCRSSQRIMTYLNWYQQKPGKAPKLLIFVASHSQSGVPSRFRGSGSETDFTLTISGLQPEDSATYYCQQSFWTPLTFGGGTKVEIKRTVAAPSVFIFPPSDEQLKSGTASVVCLLNNFYPREAKVQWKVDNALQSGNSQESVTEQDSKDSTYSLSSTLTLSKADYEKHKVYACEVTHQGLSSPVTKSFNRGEC
heavy 1: not shown
heavy 2: not shown
light 2: DIQMTQSPSSLSASVGDRVTITCSASSSVSYMNWYQQKPGKAPKRLIYDTSKLASGVPSRFSGSGSGTDFTLTISSLQPEDFATYYCQQWSSNPFTFGQGTKLEIKSSASTKGPSVFPLAPSSKSTSGGTAALGCLVKDYFPEPVTVSWNSGALTSGVHTFPAVLQSSGLYSLSSVVTVPSSSLGTQTYICNVNHKPSNTKVDKKVEPKSC
As to B5, the EC50 in test [1] was 4.6 nM. The Kd in test [2] stood at 7.2 nM. Moreover, the binding result in test [3] is “binds”.

B6: C0036 (Anti-oxMIF Fab fused to anti-CD3 scFv (HC); format: Fab-scFv) (bispecific antibody)
heavy: EVQLLESGGGLVQPGGSLRLSCAASGFTFSIYSMNWVRQAPGKGLEWVSSIGSSGGTTYYADSVKGRFTISRDNSKNTLYLQMNSLRAEDTAVYYCAGSQWLYGMDVWGQGTTVTVSSASTKGPSVFPLAPSSKSTSGGTAALGCLVKDYFPEPVTVSWNSGALTSGVHTFPAVLQSSGLYSLSSVVTVPSSSLGTQTYICNVNHKPSNTKVDKRVEPKSCGGGGSGGGGSGGGGSQVQLVQSGAEVKKPGASVKVSCKASGYTFTRYTMHWVRQAPGQGLEWMGYINPSRGYTNYNQKFKDRVTLTTDKSSSTAYMELSSLRSEDTAVYYCARYYDDHYSLDYWGQGTLVTVSSGGSGGSGGSGGSGGSDIQMTQSPSSLSASVGDRVTITCSASSSVSYMNWYQQKPGKAPKRLIYDTSKLASGVPSRFSGSGSGTDFTLTISSLQPEDFATYYCQQWSSNPFTFGQGTKLEIKAAAEQKLISEEDLAAHHHHHH
light: DIQMTQSPSSLSASVGDRVTITCRSSQRIMTYLNWYQQKPGKAPKLLIFVASHSQSGVPSRFRGSGSETDFTLTISGLQPEDSATYYCQQSFWTPLTFGGGTKVEIKRTVAAPSVFIFPPSDEQLKSGTASVVCLLNNFYPREAKVQWKVDNALQSGNSQESVTEQDSKDSTYSLSSTLTLSKADYEKHKVYACEVTHQGLSSPVTKSFNRGEC
Take B6: the 50% effective concentration (EC50) in test [1] came to 2.3 nM. The Kd in test [2] is 2.3 nM.

B7: C0007 (Full anti-oxMIF IgG with anti-CD3 scFv fused to heavy chain, v IgG1-scFv fusion) (bispecific antibody)
heavy: not shown
light: DIQMTQSPSSLSASVGDRVTITCRSSQRIMTYLNWYQQKPGKAPKLLIFVASHSQSGVPSRFRGSGSETDFTLTISGLQPEDSATYYCQQSFWTPLTFGGGTKVEIKRTVAAPSVFIFPPSDEQLKSGTASVVCLLNNFYPREAKVQWKVDNALQSGNSQESVTEQDSKDSTYSLSSTLTLSKADYEKHKVYACEVTHQGLSSPVTKSFNRGEC
B7: in test [1], the EC50 stood at 0.3 nM. Further, the Kd in test [2] came to 0.61 nM. In test [3], the binding result is “binds”.

B8: C0038 (Anti-oxMIF Fab and anti-CD3 scFv fused to Fc, Fab-scFv-Fc) (bispecific antibody, human IgG1, kappa)
light: DIQMTQSPSSLSASVGDRVTITCRSSQRIMTYLNWYQQKPGKAPKLLIFVASHSQSGVPSRFRGSGSETDFTLTISGLQPEDSATYYCQQSFWTPLTFGGGTKVEIKRTVAAPSVFIFPPSDEQLKSGTASVVCLLNNFYPREAKVQWKVDNALQSGNSQESVTEQDSKDSTYSLSSTLTLSKADYEKHKVYACEVTHQGLSSPVTKSFNRGEC
heavy: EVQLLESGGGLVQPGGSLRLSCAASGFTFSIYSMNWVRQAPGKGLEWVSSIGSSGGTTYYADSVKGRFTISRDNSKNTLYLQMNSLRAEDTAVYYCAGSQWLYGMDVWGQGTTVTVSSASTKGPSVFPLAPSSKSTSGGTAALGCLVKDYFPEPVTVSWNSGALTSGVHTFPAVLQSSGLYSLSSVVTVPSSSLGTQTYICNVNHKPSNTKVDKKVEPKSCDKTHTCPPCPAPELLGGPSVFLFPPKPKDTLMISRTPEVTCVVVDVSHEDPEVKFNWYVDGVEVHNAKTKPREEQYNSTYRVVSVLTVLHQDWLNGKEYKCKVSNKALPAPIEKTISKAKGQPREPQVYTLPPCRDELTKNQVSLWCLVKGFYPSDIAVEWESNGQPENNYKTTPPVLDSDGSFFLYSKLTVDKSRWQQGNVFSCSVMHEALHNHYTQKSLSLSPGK
chain: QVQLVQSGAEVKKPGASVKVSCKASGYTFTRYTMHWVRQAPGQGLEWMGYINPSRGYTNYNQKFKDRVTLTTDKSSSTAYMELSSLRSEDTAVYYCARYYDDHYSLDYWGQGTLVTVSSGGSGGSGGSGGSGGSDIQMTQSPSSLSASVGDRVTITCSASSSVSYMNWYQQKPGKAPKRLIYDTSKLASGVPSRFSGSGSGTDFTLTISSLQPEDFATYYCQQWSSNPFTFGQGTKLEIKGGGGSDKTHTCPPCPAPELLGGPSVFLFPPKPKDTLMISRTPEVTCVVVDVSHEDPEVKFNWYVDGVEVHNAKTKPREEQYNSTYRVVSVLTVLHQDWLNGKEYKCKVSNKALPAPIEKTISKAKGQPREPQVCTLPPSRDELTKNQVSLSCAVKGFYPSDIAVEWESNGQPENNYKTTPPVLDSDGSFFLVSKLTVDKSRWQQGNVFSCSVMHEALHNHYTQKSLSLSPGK
Turning to B8, the half-maximal effective concentration (EC50) in test [1] was 4.6 nM. In test [2], the Kd was determined as 9.4 nM.

B9: C0008 (full anti-oxMIF IgG, IgG1) (antibody, V domains shown)
VH: EVQLLESGGGLVQPGGSLRLSCAASGFTFSIYSMNWVRQAPGKGLEWVSSIGSSGGTTYYADSVKGRFTISRDNSKNTLYLQMNSLRAEDTAVYYCAGSQWLYGMDVWGQGTTVTVSS
VL: DIQMTQSPSSLSASVGDRVTITCRSSQRIMTYLNWYQQKPGKAPKLLIFVASHSQSGVPSRFRGSGSETDFTLTISGLQPEDSATYYCQQSFWTPLTFGGGTKVEIKR
notes: Monospecific control antibody; also called anti-oxMIF monospecific control antibody
B9: in test [3], the binding result was “no binding (tested: 70 nM)”.
